Reference: article PMC3605417, “An Archaeal Homolog of Proteasome Assembly Factor Functions as a Proteasome Activator” (PLoS ONE, 2013)
One block for each binder: values may come before it.

B1: His6-PbaB, Pyrococcus furiosus (natural protein, UniProt Q8U1R3 1-280, looked up)
chain: MEEGGTRNREEGKMKETTIVVYERPDIYDPIFIEGLPGIGLVGKLAAEHLIQELKAKKFAELYSPHFMHQVLIRKNSVVELMKNEFYYWKSPDDEHRDLIIVTGDTQVPPTDSYGHFEVAGKMLDFVQEFGTREIITMGGYQVPEIQGEPRVLAAVTHEDLIEYYKSKLEGCSVEVIWREDEGGAIVGAAGLLLGIGKLRGMFGISLLGESLGYIVDAKAAKAVLSAVTKILGLEIDMTALDERAKETEEILRKVEEMQRAMMEQVTPKLPHEEEDRGYL
notes: PbaB, Pyrococcus furiosus, locus PF1142, residues 1-280; pET-28b (NdeI/XhoI); Used in SPR (immobilised), ultracentrifugation, electron tomography and the chaperone assay; also called His6-tagged PbaB; PF1142; source: E. coli BL21(DE3), purified (Ni2+-chelating Sepharose, HiTrap Q HP, Superdex 200); not shown: His6, N-terminal, kept

Assays:
[1] = biological target: T1, His6-tagged wild-type 20S proteasome (αβ1 form), Pyrococcus furiosus (Pyrococcus furiosus, UniProt Q8U0L6 1-260; Q8U4C9 1-196); experiment: cell-based or functional assay
T1 sequence (looked up) 1: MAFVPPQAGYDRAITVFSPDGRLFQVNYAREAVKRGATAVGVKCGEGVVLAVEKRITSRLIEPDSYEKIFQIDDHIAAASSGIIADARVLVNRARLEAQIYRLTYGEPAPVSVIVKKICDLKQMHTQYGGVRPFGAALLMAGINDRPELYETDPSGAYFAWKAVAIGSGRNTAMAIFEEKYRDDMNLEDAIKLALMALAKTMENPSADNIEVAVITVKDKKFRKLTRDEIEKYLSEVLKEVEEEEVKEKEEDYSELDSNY
T1 sequence (looked up) 2: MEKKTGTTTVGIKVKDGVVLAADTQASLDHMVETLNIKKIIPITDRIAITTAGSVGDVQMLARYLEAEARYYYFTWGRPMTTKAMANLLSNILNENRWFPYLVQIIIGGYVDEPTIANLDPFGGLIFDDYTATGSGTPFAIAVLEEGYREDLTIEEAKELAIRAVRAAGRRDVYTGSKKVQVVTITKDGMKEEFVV

[2] = biological target: T2, non-tagged mature 20S proteasome, inactive mutant (α + β1^NΔ6/T7A), Pyrococcus furiosus (Pyrococcus furiosus, UniProt Q8U0L6 1-260; Q8U4C9 7-196, T7A); experiment: SPR; Biacore T100, Sensor Chip NTA, 25°C; His6-tagged PbaB (wild type or CΔ3) immobilised; non-tagged mature (18.8-300 nM) or immature (18.5-296 nM) 20S proteasome or α subunit ring (15.4-246 nM) injected; 10 mM HEPES (pH 7.5), 150 mM NaCl, 0.05% Tween20; 10 μl/min; conditions: both partners purified
T2 construct: proteasome α subunit PsmA, Pyrococcus furiosus, locus PF1571, residues 1-260; proteasome β subunit 1 PsmB1, Pyrococcus furiosus, locus PF0159 (residues 1-196); NΔ6: the six N-terminal (propeptide) residues removed; non-tagged version; source: E. coli BL21(DE3), co-expressed, purified (heat precipitation at 85°C, HiTrap Q HP, Sephacryl S-400); copies: 14 + 14
T2 sequence (looked up) 1: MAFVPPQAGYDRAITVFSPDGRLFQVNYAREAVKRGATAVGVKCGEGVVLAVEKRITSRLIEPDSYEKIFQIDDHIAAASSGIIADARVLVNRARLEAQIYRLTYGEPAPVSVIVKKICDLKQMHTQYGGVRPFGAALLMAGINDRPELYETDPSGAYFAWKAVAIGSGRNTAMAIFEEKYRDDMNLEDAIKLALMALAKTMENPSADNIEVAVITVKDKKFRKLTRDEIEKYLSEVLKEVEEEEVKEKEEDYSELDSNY
T2 sequence (looked up) 2: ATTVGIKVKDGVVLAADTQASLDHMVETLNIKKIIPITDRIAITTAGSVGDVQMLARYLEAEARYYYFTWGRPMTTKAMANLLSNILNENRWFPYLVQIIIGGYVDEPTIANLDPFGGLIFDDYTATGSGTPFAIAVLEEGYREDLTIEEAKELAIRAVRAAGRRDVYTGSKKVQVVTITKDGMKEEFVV

[3] = biological target: T3, immature 20S proteasome retaining the β subunit propeptide, inactive mutant (α + β1^T7A), Pyrococcus furiosus (Pyrococcus furiosus, UniProt Q8U0L6 1-260; Q8U4C9 1-196, T7A); experiment: as above; conditions: both partners purified
T3 construct: proteasome α subunit PsmA, Pyrococcus furiosus, locus PF1571, residues 1-260; proteasome β subunit 1 PsmB1 with its propeptide, Pyrococcus furiosus, locus PF0159, residues 1-196; non-tagged version; source: E. coli BL21(DE3), co-expressed, purified (heat precipitation at 85°C, HiTrap Q HP, Sephacryl S-400); copies: 14 + 14
T3 sequence (looked up) 1: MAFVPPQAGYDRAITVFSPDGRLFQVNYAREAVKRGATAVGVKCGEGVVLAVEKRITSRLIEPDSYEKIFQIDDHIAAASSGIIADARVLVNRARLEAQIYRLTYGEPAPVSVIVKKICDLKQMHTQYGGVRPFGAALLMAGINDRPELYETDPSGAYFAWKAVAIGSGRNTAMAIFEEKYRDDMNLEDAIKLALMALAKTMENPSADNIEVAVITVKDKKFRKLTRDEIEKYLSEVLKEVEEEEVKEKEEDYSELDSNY
T3 sequence (looked up) 2: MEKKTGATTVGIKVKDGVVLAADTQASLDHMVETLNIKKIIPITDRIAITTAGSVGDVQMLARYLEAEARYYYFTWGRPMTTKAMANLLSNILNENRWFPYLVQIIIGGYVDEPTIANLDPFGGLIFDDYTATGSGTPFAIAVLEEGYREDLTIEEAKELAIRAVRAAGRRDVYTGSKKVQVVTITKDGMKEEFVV

[4] = biological target: the molecule itself; experiment: AUC; sedimentation velocity, 20 μM His6-tagged PbaA or PbaB, 150 mM sodium phosphate (pH 7.5), 100 mM NaCl, 38,000 rpm, 20°C; continuous c(s) distribution (SEDFIT)
[5] = biological target: the molecule itself; experiment: crystal structure; non-tagged PbaB, 2.20 Å, space group C222(1), four molecules per asymmetric unit; 10% PEG10000, 100 mM Bis-Tris (pH 5.0), 50 mM sodium acetate, 5 mM NaAuCl4, 20°C
[6] = biological target: B1; experiment: SPR; Biacore T100, Sensor Chip NTA, 25°C; His6-tagged PbaB (wild type or CΔ3) immobilised; non-tagged mature (18.8-300 nM) or immature (18.5-296 nM) 20S proteasome or α subunit ring (15.4-246 nM) injected; 10 mM HEPES (pH 7.5), 150 mM NaCl, 0.05% Tween20; 10 μl/min; conditions: both partners purified

Binder: B1
proteasomal degradation of human α-synuclein (18 μM) by 35 nM wild-type 20S proteasome with 105 nM PbaB, 95°C; fold acceleration by PbaB [1]: ~2.5 fold | proteasomal degradation of the fluorogenic nonapeptide LFP (10 μM) by 35 nM wild-type 20S proteasome with 175 nM PbaB, 45°C; fold acceleration by PbaB [1]: ~3 fold | Kd [2]: 7.8 nM | Kd [3]: 21 nM | stoichiometry N [4]: 4

B2: PbaB (non-tagged), Pyrococcus furiosus (natural protein, UniProt Q8U1R3 1-280, looked up)
chain: MEEGGTRNREEGKMKETTIVVYERPDIYDPIFIEGLPGIGLVGKLAAEHLIQELKAKKFAELYSPHFMHQVLIRKNSVVELMKNEFYYWKSPDDEHRDLIIVTGDTQVPPTDSYGHFEVAGKMLDFVQEFGTREIITMGGYQVPEIQGEPRVLAAVTHEDLIEYYKSKLEGCSVEVIWREDEGGAIVGAAGLLLGIGKLRGMFGISLLGESLGYIVDAKAAKAVLSAVTKILGLEIDMTALDERAKETEEILRKVEEMQRAMMEQVTPKLPHEEEDRGYL
notes: PbaB, Pyrococcus furiosus, locus PF1142, residues 1-280; Homotetramer in the crystal and by ultracentrifugation; Cloned into NdeI/XhoI of pET-28b; also called non-tagged PbaB; PF1142; source: E. coli BL21(DE3), purified (Ni2+-chelating Sepharose, thrombin cleavage of the His6-tag, HiTrap Q HP, Superdex 200); not shown: His6, N-terminal, cleaved
stoichiometry N [5]: 4

Kd [6]: 330 nM
B3: non-tagged double homoheptameric ring of the proteasome α subunit, Pyrococcus furiosus (complex, UniProt Q8U0L6 1-260, looked up)
chain: MAFVPPQAGYDRAITVFSPDGRLFQVNYAREAVKRGATAVGVKCGEGVVLAVEKRITSRLIEPDSYEKIFQIDDHIAAASSGIIADARVLVNRARLEAQIYRLTYGEPAPVSVIVKKICDLKQMHTQYGGVRPFGAALLMAGINDRPELYETDPSGAYFAWKAVAIGSGRNTAMAIFEEKYRDDMNLEDAIKLALMALAKTMENPSADNIEVAVITVKDKKFRKLTRDEIEKYLSEVLKEVEEEEVKEKEEDYSELDSNY
notes: proteasome α subunit PsmA, Pyrococcus furiosus, locus PF1571, residues 1-260; also called α subunit ring; source: E. coli BL21(DE3), purified (same procedure as the non-tagged 20S proteasome mutants); copies: 14

B4: His6-PbaA, Pyrococcus furiosus (natural protein, UniProt Q8U4Q9 1-242, looked up)
chain: MEEKKPVNLVLPEVENAIFIEGYPGVGLVGHIAANFLAKELDMDLIGYVDSLFIPPMSLILEGRPTPPLRFYGKNNIIIAIADIFLPPTLVNEIAKEIVNYLKKVNAEKVISLAGMGIGFFKDTFEVWGIGGSEEENKELESLGVKILKYGSITGMSGKLLWEASRAGLKSYVLLGETFGDRPDPRAAANVVEVLNKMLGLNVSVEPLLKEAEMIEEQLRRMHEQMEEARRKMERQYETMYL
notes: PbaA, Pyrococcus furiosus, locus PF0015, residues 1-242; pET-28b (NdeI/XhoI); Pentamer in solution by sedimentation velocity; also called His6-tagged PbaA; PF0015; source: E. coli BL21(DE3), purified (Ni2+-chelating Sepharose, HiTrap Q HP, Superdex 200); not shown: His6, N-terminal, kept
stoichiometry N [4]: 5
